Holding throughout (experiment): cleavage_in_vitro
The target in one series is T1, PvuII (Proteus vulgaris) (UniProt P23657).
T1 sequence: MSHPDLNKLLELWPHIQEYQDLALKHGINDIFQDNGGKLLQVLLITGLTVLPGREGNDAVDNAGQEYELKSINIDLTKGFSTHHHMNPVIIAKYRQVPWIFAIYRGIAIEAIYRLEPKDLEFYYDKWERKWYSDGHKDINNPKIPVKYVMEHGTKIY
Conditions: NEB1, 37 C.

Series [1] addresses T2, SalI (Streptomyces albus G) (UniProt Q53608).
T2 sequence: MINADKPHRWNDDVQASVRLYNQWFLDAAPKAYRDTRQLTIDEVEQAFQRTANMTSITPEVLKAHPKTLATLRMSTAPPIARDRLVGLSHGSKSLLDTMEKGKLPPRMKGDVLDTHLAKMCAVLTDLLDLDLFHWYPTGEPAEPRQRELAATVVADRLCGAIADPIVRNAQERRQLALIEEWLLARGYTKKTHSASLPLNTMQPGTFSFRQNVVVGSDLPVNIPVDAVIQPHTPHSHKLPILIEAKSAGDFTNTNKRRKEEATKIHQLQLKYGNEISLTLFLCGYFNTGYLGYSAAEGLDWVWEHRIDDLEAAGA
The conditions noted are these: NEB3, 37 C.

Series [2] deals with T3, SalI-HF R107A (Streptomyces albus G) (UniProt Q53608).
T3 sequence: T2 sequence with R107A
Conditions: NEB2, 37 C.

Series [3] concerns T4, AvrII (Anabaena variabilis).
T4 sequence: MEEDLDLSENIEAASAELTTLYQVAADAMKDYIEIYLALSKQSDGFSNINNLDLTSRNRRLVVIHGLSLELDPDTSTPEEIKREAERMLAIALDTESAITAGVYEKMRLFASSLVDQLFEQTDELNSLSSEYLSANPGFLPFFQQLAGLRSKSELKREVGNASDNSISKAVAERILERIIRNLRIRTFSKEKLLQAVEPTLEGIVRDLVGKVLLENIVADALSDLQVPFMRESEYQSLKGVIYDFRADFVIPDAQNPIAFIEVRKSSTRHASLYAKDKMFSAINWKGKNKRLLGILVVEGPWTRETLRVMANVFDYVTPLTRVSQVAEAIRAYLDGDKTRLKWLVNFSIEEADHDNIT
The conditions noted are these: NEB1, 37 C.

Series [4] relates to T5, AvrII-HF Y104F (Anabaena variabilis).
T5 sequence: T4 sequence with Y104F
Conditions: NEB4, 37 C.

This note sets out measurements from patent US20130122568.

Where a chain is given by its changes, count along the chain named.

On to pBR322, for which, in the series with PvuII (Proteus vulgaris), the activity (fidelity index) is 250.

With HindIII-digested lambda DNA, the values for the activity (fidelity index) in series [1] and in series [2] were 32 and over 64000, respectively.

For T7 DNA, the activity (fidelity index) in series [3] is 64; in series [4], over 1000.
